T1: soluble guanylyl cyclase alpha 1 (sGCα1) (UniProt Q02108 1-690)
T1 sequence (looked up): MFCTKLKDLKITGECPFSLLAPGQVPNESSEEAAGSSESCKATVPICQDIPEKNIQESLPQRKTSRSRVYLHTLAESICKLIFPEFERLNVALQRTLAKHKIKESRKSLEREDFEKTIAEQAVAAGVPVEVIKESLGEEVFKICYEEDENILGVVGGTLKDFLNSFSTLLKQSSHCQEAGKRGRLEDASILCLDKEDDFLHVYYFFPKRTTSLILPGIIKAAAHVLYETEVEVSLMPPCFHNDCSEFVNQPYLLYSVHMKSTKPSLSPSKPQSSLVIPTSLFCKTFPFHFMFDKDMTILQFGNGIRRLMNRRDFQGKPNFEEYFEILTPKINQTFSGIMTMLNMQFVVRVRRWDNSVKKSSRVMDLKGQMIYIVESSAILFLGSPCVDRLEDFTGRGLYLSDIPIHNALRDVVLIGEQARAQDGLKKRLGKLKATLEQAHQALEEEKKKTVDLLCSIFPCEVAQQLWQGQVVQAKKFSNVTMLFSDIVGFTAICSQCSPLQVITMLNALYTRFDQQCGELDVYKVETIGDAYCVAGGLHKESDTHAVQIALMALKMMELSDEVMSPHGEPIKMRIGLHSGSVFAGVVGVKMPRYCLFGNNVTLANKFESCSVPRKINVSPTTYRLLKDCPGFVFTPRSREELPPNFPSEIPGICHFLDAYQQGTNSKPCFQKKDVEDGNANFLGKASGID

Ends that are not written are not given here.

For one experiment, the target named is T1, soluble guanylyl cyclase alpha 1 (sGCα1). Put plainly: cell-based or functional assay.
Turning to TFCRRRRRRRR [Peptide TC3-8R], the “IC50 (µM), cytotoxicity, Day 3, LNCaP cell culture” value (“IC50 … Day 3, LNCaP cell culture” below) was found to be 72 µM and the “IC50 (µM), cytotoxicity, Day 6, LNCaP cell culture” value (“IC50 … Day 6, LNCaP cell culture” for short) was determined as 140 µM. For TFCKAFPRRRRRRRR-NH2 [Peptide TP7-8R] the same measures were 16 µM and 23 µM.

Regarding FAKAFRRRRRRRR-NH2 [Peptide FF5-C2A-8R], the “IC50 … Day 3, LNCaP cell culture” value was about 210 µM and the “IC50 … Day 6, LNCaP cell culture” value was 145 µM. For the molecule FCKARRRRRRRR [Peptide FA4-8R], the “IC50 … Day 3, LNCaP cell culture” value amounted to 43 µM and the “IC50 … Day 6, LNCaP cell culture” value came out at 90 µM. The matching figures for FCAAFRRRRRRRR-NH2 [Peptide FF5-K3A-8R]: 60 µM and 38 µM. On to TFCKAFRRRRRRRR-NH2 [Peptide TF6-8R], for which the “IC50 … Day 3, LNCaP cell culture” value worked out at 18 µM and the “IC50 … Day 6, LNCaP cell culture” value turned out to be 28 µM. For the molecule Ac-TFCKAFPFHIIRRRRRRRR-OH [Peptide A-8R], the “IC50 … Day 3, LNCaP cell culture” value amounted to 8 µM and the “IC50 … Day 6, LNCaP cell culture” value is 16 µM. For FCKAFPRRRRRRRR-NH2 [Peptide FP6-8R] the same measures were 22 µM and 35 µM. With ACKAFRRRRRRRR-NH2 [Peptide FF5-F1A-8R], the “IC50 … Day 3, LNCaP cell culture” value was 200 µM and the “IC50 … Day 6, LNCaP cell culture” value came to 160 µM.

As to FCKAFRRRRRRRR-NH2 [Peptide FF5-8R], the “IC50 … Day 3, LNCaP cell culture” value stood at 22 µM and the “IC50 … Day 6, LNCaP cell culture” value was determined as 40 µM. For CKAFRRRRRRRR-NH2 [Peptide CF4-8R] the same measures were 62 µM and 120 µM. For FCKAARRRRRRRR-NH2 [Peptide FF5-F5A-8R] the same measures were 160 µM and 120 µM. FMKAFRRRRRRRR-NH2 [Peptide FF5-C2M-8R]: the “IC50 … Day 3, LNCaP cell culture” value came to 90 µM and the “IC50 … Day 6, LNCaP cell culture” value was found to be 65 µM.

A further experiment has the same target. In words: competitive binding assay.
As for KAFPRRRRRRRR [Peptide KP4-8R], the binding result was “no binding”.

The record behind these values is patent US20140088023A1 (UNIVERSITY OF TOLEDO, published 2014).
